# In the DeepSol protein solubility set:
# Assay: soluble on expression in E. coli; label from the status in PepcDB or PDB records
row,Sequence,soluble on expression in E. coli
1,MSLFAAQYIGNKSFNVVEGHAIAPQAGEVRLDVGYVGICGTDMHIYHGVMDQRVSIPQTIGHEISGVVAQIGEGVEGFTVGEKVVVRPLDWCGECPTCEAGLTHICQNLKFMGIDTPGAFQSSWTVKARTLHKLPAGVDLKQGALVEPLSVACHDVRRSRLKAGEKAVILGGGPIGQLVAAVAKSVGAEVLVSEPNDSRREFADELGVKSVNPMDTDLAAYVDQWTGTKGADVVFEVSGVLPAIQSMTQIAGRRGRIVMVAIHSTAPPIDLFQFFWKELELLGARVYEAADFDWAIELIASGQIDLKPFISSVSPLADIGSAFANMDGNPQGMKALVECNAEEGHHHHHH,soluble
2,MPQSLISELHTQYAQFVRKHPHAERDFSDALEDVLTDAGLTYDRVSARIKDWHSLKTKARKKNAQGAFIYPHPWDDVHDIIGVRITTLHSTEIPQIIEALADVFTVERSVDKTALTRISGSFGYGSHHLILKIDDRVKDLNNYVGMVFEVQIRTVLQHAWAEFEHDIRYKRSGDLDPQIDRAFTLAAGLIELADQQFDLIAAIQEPQKHSPNLEVDITAETLPGVIAMLVGSRFPQSRSEHYRWLEELLFAHSITTAAQLKELLNDRDIEAVRKALNYKFKPGQVRIIDDLLLYRYGTKHIEATGETGKNPRLRLPRLNERLRILNKHAPRNRSDLQQS,not soluble
3,MGDIHFIGSAANFFRSSTSDDWVRFHTFAEETLKGSQSLIALQWLVKVEPPQAETFTARMQQRFPEFTLYTVPKTGEIKYGFGTDDQAKYVLSDIYPLNYDNRKLLGFYSERERFKRILADIVVNRRPNVSDKVRLLQDGIDKSIVKDGMLVYHPVFSSEDDRSLLGVMVGVVRLSTYFEKLVQISVMEQDLDMRVIDTGFDSEDSPVLYQSPMWRADDEPKIERKLVLPNRDWVLEFELHQPINHSEELEHHHHHH,not soluble
4,GMDNSEEKKLEALGAFEISRKMLALAQKNEKSNIFLNAGRGNPNWIQTLARLAFVRLVQFGVTESKLTINNGIMAGYINTDGIRERLFAFLDPDKNDEDKFLIDAVNYCHTELGLNRDKVVAEWVNGAVANNYPVPDRCLVNTEKIINYFLQELSYKDANLAEQTDLFPTEGGTAAIVYAFHSLAENHLLKKGDKIAINEPIFTPYLRIPELKDYELVEVDLHSYEKNDWEIEPNEIEKLKDPSIKALIVVNPTNPTSKEFDTNALNAIKQAVEKNPKLMIISDEVYGAFVPNFKSIYSVVPYNTMLVYSYSKLFGCTGWRLGVIALNEKNVFDDNIAHLDKVELRQLHKRYSSVVLDPDKMKFIDRLCADSRSIGLYHTAGLSTPQQIMEALFSMTHLLTSTNGGSDDPYIDIARKLVSERYDQLHDAMQAPKDETDTNTHYYSLIDIYRLAEKIYGKEFRDYLTNNFEQVDFLLKLAEKNGVVLVDGVGFGAKPGELRVSQANLPTEDYALIGKQVLELLKEYYEEFKQNN,soluble
5,AVANILNRDYNRAQEILNGIKNPDATTYYLMAVVAARTNNLDVVINSLRESISLDSSMMKKAATDLEFAKYANDGGFKSLLRH,not soluble
6,MSLTDRTIGEAAELLGVTTRTLRHWDSIGLLQPSWRTTTDYRLYTEDDVERALQILIYRAAGIGLKDIAEVLDQPDSANQHLRRQRELLVEQIGQLHRMVRAVDEILGKDAISVKEKIEIFGEDLPKYQEEAFQRWGEGHHHHHH,soluble
7,MKVAEIIVVEGKDDTRRIQEVVAADTIETIGSAINDEILTQIEHAQETRGVIIFTDPDYSGEKIRKTIMEVVPDAKHAFLSRKVAVPKKNGGSLGVEHASDEAIIEALKKVVTPVQADEDYQEIPRQTLVEYGLIAGANAKKYRELLGDDLRIGYTNSKQLVKRLSMFRITEAELKESMTRILKELANEE,not soluble
8,GPGSMSRTQTSSKSVPKNIAVYCRVRPPVPNEKGHTFQNISYDDSDSRAIAVARKSGTKALEKTYLFNRVFRPTATQKDVYETFAKGAVDAAFDGQHGVLFVYGQTGSGKTFTISNDEPNNEGVLQRSMRDIWNRIASDTANDYSCSVSYVQLYNEILTDLLDDAKGKVRIQMGSEGRGDVVMVSDSTGMAIEREVKDYKSTMACFQVGLARKEMASTSMNSTSSRSHTIFTLNIVKAKKVVAVTVGTEAEGPTIALEGRLVLCDLAGSERVSKTHAEGKTLDEATHINRSLLTLGKVVTALTDNAQHAPFRESKLTRILQYSLMGNGNTSIIVNISPSDDNTEESLSAILFGQRASQIKQDAKRHEVLDYKALYMQLMAELDNKNDKTLEEALEEERGVYEERISALDEEMKLLSDENAMLRNENKQLRQYVPADRLKLIDETPSSGVSGANGEVVSGGWAKVNQDLRKLVQQRDERLKVISDERVRLALVVAEEKRKCFQLAQKMRSFAMRYKMEREQSTQRQEELCTELATLKGTDYLSAVGSFDATASPGSPNYPRENEEFNDAESAQAQIRALRAERMELMVYQAKAANAIRKLVKERDAAQRKVA,soluble
9,DGFRIAFISDLHYKSLFKEKGLESLVRLLNAQHADVLLMGGDYQEGCQYVPELFAALAKVKTPMGTYGVMGNNDYERCHDEIIREMQRYGMRPLEHQIDTLRRDGAQIILAGVRNPFDLANNGVSPTLSLSPSDFVILLVHTPDYAEDVSVANSDLVLAGHTHGGQVRILGYAPIIPSHYGSRF,not soluble
10,VFHPVECSYCHSESMMGFRYRCQQCHNYQLCQDCFWRGHAGGSHSNQHQMKEYTSW,soluble
11,MANVQSGKMIVGLDIGTSKVVALVGEVAADGSLEIVGIGTHPSRGLKKGVVVNIESTVQSIQRAIEEAQLMAGCRIHSAFVGVAGSHIRSLNSHGIVAIRDREVSAADLERVLDAAQAVAIPADQ,not soluble
12,MSVDKYGKVYLIGAGPGNPNYLTKKAERLIREADVILYDRLVNPLILQYANLTTEIIDVGKKPYAKHIQQEKINECIVEAARRYNKVVRLKGGDPAIFGRVQEEVDTLNNFNIAFEIVPGVTSASAAVATMQTGLTMRAVAKSVTFSTGHFKDSEENEVDVNALVNGGTLAIYMGVKRLGKIIAQIQQYTDIDYPIAIVFQASCFNEFVVKGRLSNIVGKLEHYAIEAKPGICIIGEVVGYTENVSTTSNPTQQFYVVSGSRHDALMLCEHLYDEGYGCLLNPNDTSNGTYHSSQYDYYDAFIKQQENVTYISTDRADANTVLCH,not soluble
13,MAKKKTKFTCQECGYQSPKYMGKCPGCGQWNSLVEEMEPVVSSRRLNYANAIQTEVTKPRRLTEVETKSEARIETKFQEFNRVLGGGIVDGSLVLIGGDPGIGKSTLLLQISSQLADASYDVLYISGEESAKQIKLRADRLHVNGSNLFVVSETDLQRIAAHIEEMNPAFVVIDSIQTIHLPEVTSAPGSVAQVRECTAELMKLAKTKGIPIFIVGHVTKEGAIAGPRMLEHMVDAVLYFEGDRHHTYRILRAVKNRFGSTNEMGIFEMKELGLAEVLNPSEIFLEERPVGVAGSTVVASMEGTRPVLVEIQALISPTSFGNPRRMATGIDHNRVSLIMAVLEKRTGLLLQNQDAYLKVAGGLKLDEPAIDLAVALSIASSFRDKSTAPTDAVIGEVGLTGEIRRVSRIEQRVQEAAKLGFQRAIIPRKNLGGWTIPEGIEVVGVSNLGEALRLTLGG,not soluble
14,MIFGRTERGKPPVEPVTLKILVAGGFGVGKTTLVGAVSEIRPLRTEEVLTEAGRPVDDISGVEGKHTTTVAMDFGRITLREDLVLYLFGTPGQDRFWFLWDELATGALGAVVLADTRRLEDCFAAVDYFERRSIPFVMGVNCFEEAARYPVEDVRRALDLDDDVPVVLCDARDRESVKEVLIDVVRHAMAHAAERRETVSGLEHHHHHH,not soluble
15,MSILNDYKRKTEGSVFWAQRARSVMPDGVTADTRAFDPHGLFISDAQGVHKTDVDGNVYLDFFGGHGALVLGHGHPRVNAAIAEALSHGVQYAASHPLEVRWAERIVAAFPSIRKLRFTGSGTETTLLALRVARAFTGRRMILRFEGHYHGWHDFSASGYNSHFDGQPAPGVLPETTANTLLIRPDDIEGMREVFANHGSDIAAFIAEPVGSHFGVTPVSDSFLREGAELARQYGALFILDEVISGFRVGNHGMQALLDVQPDLTCLAKASAGGLPGGILGGREDVMGVLSRGSDRKVLHQGTFTGNPITAAAAIAAIDTILEDDVCAKINDLGQFAREAMNHLFARKGLNWLAYGRFSGFHLMPGLPPNTTDTGSITRAEVARPDVKMIAAMRMALILEGVDIGGRGSVFLSAQHEREHVEHLVTTFDRVLDRLADENLLSWQGTNLSGNQS,soluble
16,MSLSSVNCIEQTTEWTACSKSCGMGFSTRVTNRNRQCEMLKQTRLCMVRPCEQEPEQPTDKKGKKCLRTKKSLKAIHLQFKNCTSLHTYKPRFCGVCSDGRCCTPHNTKTIQAEFQCSPGQIVKKPVMVIGTCTCHTNCPKNNEAFLQELELKTTRGKMEGHHHHHH,not soluble
17,MHIYRYEENPLITPEDVPPHHDGFEVIGAFNAGVARFQGEVLLLLRVAERPVSDDPNIVKAPVWNPKTGKVDVYEFRKDDPRYDFSDPRVIREAGAERFAYLTSLSYLRLARSQDGRRFVIDDRPFVYPSNELETFGIEDPRITYIDGTYYIYFSAVSPKGVGEAMVSTTDFRTVTHHGMIFAPENKDVLIFPEKINGKYYALHRPVPRSNGRPEVWIAESENLLHWGNHRFLFGLREGKWDSARIGGGAVPIKTEYGWLELYHGASDDHRYCMGAVLLDLNDPAKVIARSERPLVEPEADYEVNGFFGRVVFSCGALVDGDIVKMYYGAADTSMACVELKLDEILDSLVKV,soluble
18,MPSADVLIIGSGIAALRVAKEICHEKNVIIITKETNRNNNTHLAQGGIAAAVATYDNPNDHFEDTLVAGCRYNNEDVVRYLVEEGPKEMKNLIENGMQFDGDETGPHLGKEGAHRKRRILHAGGDATGKNLLEHFIQEVVPHVTVVEQEMVLDFIIESEKCVGVLTRNSEGKLKRYDADYTVLASGGVGGLYAFTSNDKTITGDGLAMVYRAGGELVDLEFVQFHPTMLYAGGQCCGLVSEAVRGEGAVLINGKGQRFMMDIHDDYDLAPRDVVARAIHEQLLSGEKVYLNIGSIQNFQERFPTVSALCKKNGVDITKKRIPVVPGAHFHMGGVKTNIDGETSIPNLYAVGEVACNGVHGANRLASNSLLEGLVFGKRIGQHILTKATKDKLNDFAEKEKKFIVLNHLPTKEEIQECMMKYVGIVRTEQSLSYAKRWLSKYGVRNMILQHDALTNEEITLINMLTVCELIVVSALQREESIGGHYRSDYPHRNSAQKEIIRVKRKLQLV,not soluble
19,MSLVAVRSAHINKAGEFDPEKWIASLGITSQKSCECLAETWAYCLQQTQGHPDASLLLWRGVEMVEILSTLSMDIDTLRAALLFPLADANVVSEDVLRESVGKSVVNLIHGVRDMAAIRQLKATHTDSVSSEQVDNVRRMLLAMVDDFRCVVIKLAERIAHLREVKDAPEDERVLAAKECTNIYAPLANRLGIGQLKWELEDYCFRYLHPTEYKRIAKLLHERRLDREHYIEEFVGHLRAEMKAEGVKAEVYGRPKHIYSIWRKMQKKNLAFDELFDVRAVRIVAERLQDCYAALGIVHTHYRHLPDEKDDYVANPKPNGYQSIHTVVLGPGGKTVEIQIRTKQMHEDAELGVAAHWKYKEGAAAGGARSGHEDRIAWLRKLIAWQEEMADSGEMLDEVRSQVFDDRVYVFTPKGDVVDLPAGSTPLDFAYHIHSDVGHRCIGAKIGGRIVPFTYQLQMGDQIEIITQKQPNPSRDWLNPNLGYVTTSRGRSKIHAWFRKQDRDKNILAGRQILDDELEHLGISLKEAEKHLLPRYNFNDVDELLAAIGGGDIRLNQMVNFLQSQFNKPSAEEQDAAALKQLQQKSYTPQNRSKDNGRVVVEGVGNLMHHIARCCQPIPGDEIVGFITQGRGISVHRADCEQLAELRSHAPERIVDAVWGESYSAGYSLVVRVVANDRSGLLRDITTILANEKVNVLGVASRSDTKQQLATIDMTIEIYNLQVLGRVLGKLNQVPDVIDARRLHGSEGHHHHHH,not soluble
